Test results: patent US12281147

Legend:
[1] = target: human interleukin 21 receptor (IL-21R) (human) (UniProt Q9HBE5); assay: AlphaSeq yeast mating assay, pH 5 media
[2] = target: human interleukin 21 receptor (IL-21R) (human) (UniProt Q9HBE5); assay: AlphaSeq yeast mating assay, pH 7 media
[3] = target: human interleukin 21 receptor (IL-21R) (human) (UniProt Q9HBE5); assay: AlphaSeq yeast mating assay, unbuffered media
[4] = target: human interleukin 21 receptor (IL-21R) (human) (UniProt Q9HBE5); assay: AlphaSeq yeast mating assay, pH 6 media
[5] = target: mouse IL-21R on T cells of mouse splenocytes (mouse) (UniProt Q9JHX3); assay: cell-based or functional assay
[6] = target: mouse IL-21R, His-tagged (BLI antigen) (mouse) (UniProt Q9JHX3); assay: BLI
[7] = target: human IL-21R on T cells of primary human PBMCs (human) (UniProt Q9HBE5); assay: cell-based or functional assay
[8] = target: recombinant human IL-21R His tag (Acro Biosystems) (human) (UniProt Q9HBE5); assay: BLI

Row | Kd [1] [nM] | Kd [2] [nM] | Kd [3] [nM] | Kd [4] [nM] | Mouse T cell EC50 (pM), pSTAT3 phosflow [5] [pM] | Kd [6] [nM] | Human T cell EC50 (pM), pSTAT3 phosflow [7] [pM] | Kd [8] [nM] | Substance
1 | 41 | 59 | 560 | – | – | – | – | – | IL-21_H35P (from UniProt Q9HBE4 32-152) (ligand)
2 | 360 | – | 150 | – | – | – | – | – | IL-21_H118I (from UniProt Q9HBE4 32-152) (ligand)
3 | – | 550 | 120 | – | – | – | – | – | IL-21_K106E (from UniProt Q9HBE4 32-152) (ligand)
4 | 200 | – | 210 | – | – | – | – | – | IL-21_K106T (from UniProt Q9HBE4 32-152) (ligand)
5 | 20 | 140 | 250 | 11 | – | – | – | – | IL-21_N51E (from UniProt Q9HBE4 32-152) (ligand)
6 | 60 | – | 190 | – | – | – | – | – | IL-21_P107D (from UniProt Q9HBE4 32-152) (ligand)
7 | 100 | 77 | 330 | – | – | – | – | – | IL-21_R34L (from UniProt Q9HBE4 32-152) (ligand)
8 | 150 | – | 390 | – | – | – | – | – | IL-21_R34M (from UniProt Q9HBE4 32-152) (ligand)
9 | – | 140 | 350 | 26 | – | – | – | – | IL-21_R34T (from UniProt Q9HBE4 32-152) (ligand)
10 | 140 | 35 | – | 27 | – | – | – | – | IL-21_R94S (from UniProt Q9HBE4 32-152) (ligand)
11 | 210 | 80 | – | 27 | – | – | – | – | IL-21_R94T (from UniProt Q9HBE4 32-152) (ligand)
12 | 140 | 57 | 450 | 48 | – | – | – | – | IL-21_R114F (from UniProt Q9HBE4 32-152) (ligand)
13 | 140 | 50 | 260 | 35 | – | – | – | – | IL-21_R115I (from UniProt Q9HBE4 32-152) (ligand)
14 | – | 57 | 55 | 15 | – | – | – | – | IL-21_R115P (from UniProt Q9HBE4 32-152) (ligand)
15 | – | 56 | – | 11 | – | – | – | – | IL-21_R115Q (from UniProt Q9HBE4 32-152) (ligand)
16 | 40 | 60 | – | 15 | – | – | – | – | IL-21_S77M (from UniProt Q9HBE4 32-152) (ligand)
17 | – | – | – | – | 1800 | 19.8 | – | – | IL-21_human_D33P Fc fusion protein (from UniProt Q9HBE4 30-162)
18 | – | – | – | – | 47000 | 7.75 | 31 | – | IL-21_human_E72S Fc fusion protein (from UniProt Q9HBE4 30-162)
19 | – | – | – | – | 71000 | 11.8 | – | 3.21 | IL-21_human_P108L Fc fusion protein (from UniProt Q9HBE4 30-162)
20 | – | – | – | – | 8500 | 28.7 | 5.6 | 31.5 | IL-21_human_R34S Fc fusion protein (from UniProt Q9HBE4 30-162)
21 | – | – | – | – | 1900 | – | 3.6 | 12.3 | IL-21_human_S74H Fc fusion protein (from UniProt Q9HBE4 30-162)
22 | – | – | – | – | 6900 | 19.9 | – | 22.8 | IL-21_human_W73L Fc fusion protein (from UniProt Q9HBE4 30-162)
23 | – | – | – | – | 9200 | 19.4 | 8.7 | 14.4 | IL-21_human_Y52Q Fc fusion protein (from UniProt Q9HBE4 30-162)
